According to patent publication US20140294821:

Legend:
[1] = system: rBDD FVIII (recombinant B-domain deleted FVIII lacking Fc moieties)
[2] = system: rFVIIIFc (recombinant B-domain deleted human FVIII-Fc monomer hybrid), drug substance
[3] = system: single chain rFVIIIFc (purified non-processed isoform of rFVIIIFc)

## human α-thrombin
[1]
  loss of SPR response of vWF-bound rBDD FVIII after α-thrombin (double reference-subtracted release phase): response falls faster and deeper with rising α-thrombin (0.005 to 20 U/mL): at 20 U/mL to about -415 RU at 120 s at 25 °C and to about -425 RU at 37°C; the lowest concentrations stay within about -60 RU of 0
  release rate (RU/s) of rBDD FVIII from immobilized vWF against time, by α-thrombin concentration: peak release rate grows and comes earlier with rising α-thrombin: uppermost trace (20 U/mL) peaks at about 105 RU/s near 2 s at 25 °C and at about 157 RU/s near 2 s at 37 °C
[2]
  release rate (RU/s) of rFVIIIFc from immobilized vWF against time, by α-thrombin concentration: peak release rate grows and comes earlier with rising α-thrombin: uppermost trace (20 U/mL) peaks at about 145 RU/s near 3 s at 25 °C and at about 205 RU/s near 2 s at 37 °C
[3]
  release rate (RU/s) of SC rFVIIIFc from immobilized vWF against time, by α-thrombin concentration: peak release rate grows with rising α-thrombin: uppermost trace (20 U/mL) peaks at about 112 RU/s near 3 s at 37°C; the 25 °C panel as drawn peaks at about 145 RU/s near 3 s and looks the same as the rFVIIIFc 25 °C panel, which does not agree with Figure 16E (about 82 RU/s at 20 U/mL)

## activated protein C
[1]
  FXa generation rate after thrombin activation and incubation with APC: Treatment with APC for 90 min led to a significant decrease in FXa generation rates, similar to non-activated samples, and these results were similar for rFVIIIFc DS, rBDD FVIII, and single chain rFVIIIFc
[2]
  FXa generation rate after thrombin activation and incubation with APC: Treatment with APC for 90 min led to a significant decrease in FXa generation rates, similar to non-activated samples, and these results were similar for rFVIIIFc DS, rBDD FVIII, and single chain rFVIIIFc
[3]
  FXa generation rate after thrombin activation and incubation with APC: Treatment with APC for 90 min led to a significant decrease in FXa generation rates, similar to non-activated samples, and these results were similar for rFVIIIFc DS, rBDD FVIII, and single chain rFVIIIFc

## activated Factor IX
[1]
  FXa generation rate (nM/min) against FIXa concentration (Xase complex on phospholipid vesicles): BDD FVIII (triangles, solid Kd fits, two runs): rate rises from about 0.2 nM/min at about 0.25 nM FIXa to about 2.5 to 2.7 nM/min at about 5.6 nM, points at 8 nM about 2.0 to 2.1; the fits still rise at 8 nM (about 2.5 to 2.6), no upper plateau in the range shown
  Km (nM) (called Kd in the text) of FXa generation rate as a function of FIXa concentration (thrombin-activated FVIII, 25% PS-75% PC vesicles): 2.5 nM
  Vmax (nM/min) of FXa generation rate as a function of FIXa concentration: 4 nM/min
[2]
  FXa generation rate (nM/min) against FIXa concentration (Xase complex on phospholipid vesicles): FVIIIFc (circles, dashed Kd fits, two runs): rate rises from about 0.2 nM/min at about 0.25 nM FIXa to about 2.8 to 3.2 nM/min at 4 to 8 nM; the fits still rise at 8 nM (about 3.3), no upper plateau in the range shown
